Source: the nanobody polyreactivity screen of Harvey et al. (2022)

Assay: yeast display, Sf9 membrane polyspecificity reagent, FACS + sequencing; frameworks hold sequencing errors
Method in brief: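 A nanobody's polyreactivity label depends on the gate it was sorted from. Yeast display cells were stained with 10% biotinylated, detergent-solubilized Sf9 membrane reagent for 1 hour at 4 °C, enriched on streptavidin microbeads and sorted by FACS. The low and high (top ~1%) gates were set on anti-HA fluorescence for expression and streptavidin fluorescence for reagent binding.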

Row | Sequence | polyreactivity (PSR sort gate)
1 | QVQLVESGGGLVQAGGSLRLSCAASGIIFLDYVMGWYRQAPGKERELVAAINSGGSTYYADSVKGRFTISRDNAKNTVYLQMNSLKPEDTAVYYCAADDYYKFDYWGQGTQVSVSS | low polyreactivity
2 | QVQLVESGGGLVQAGGSLRLSCAASGIIFLDYVMGWYRQAPGKERELVAAISRSGGTTYYADSVKGRFTISRDNAKNTVYLQMNSLKPEDTAVYYCAVRSYRDTRFYYWGQGTKVTVSS | high polyreactivity
3 | QVQLVESGGGLVQAGGSLRLSCAASGIIFLENAMGWFRQAPGKESELVAGINGGGRTDYADSVKGRFTISRDNAKHTVYLQMNSLKPEDTAVYYCAAESSWYSPDVNYCGQGTQVTVSS | low polyreactivity
4 | QVQLVESGGGLVQAGGSLRLSCAASGIIFLFYAMGWYRQAPGKERELVASITWSGGSTYYADSVKGRFTISRDNAKNTVYLQMNSLKPEDTAVYYCAASVKIISYLVHSEFLGGELDYWGQGTQVTVSS | low polyreactivity
5 | QVQLVESGGGLVQAGGSLRLSCAASGIIFLGNAMGWYRQAPGKERELVAAITASGTSTYYADSVKGRFTISRDNAKNTVYLQMNSLKPEDTAVYYCAAQSTWYDYYYWGQGTQVTVSS | low polyreactivity
6 | QVQLVESGGGLVQAGGSLRLSCAASGIIFLGYVMGWYRQAPGKERELVAAISSSGGRTYYADSVKGRFTISRDNAKNTVYLQMNSLKPEDTAVYYCARYSYRGTNVRYDYWGQGTQVTVSS | high polyreactivity
7 | QVQLVESGGGLVQAGGSLRLSCAASGIIFLLYAMGWYRQAPGKERELVAAITNGGRTNYADSVKGRFTISRDNAKNTVYLQMNSLKPEDTAVYYCNAVLSVPDYTLFDYWGQGTQVTVSS | low polyreactivity
8 | QVQLVESGGGLVQAGGSLRLSCAASGIIFLNYDIGWYRPAPGKERELVAAITTSGASTYYADSVKGRFTISRDNAKNTVYLQMNSLKREDTAVYYCAAVFRHARYRYDYWGQGTQVTVSS | high polyreactivity
9 | QVQLVESGGGLVQAGGSLRLSCAASGIIFLSYAMGWYRQAPGKERELVATITRSGGSTYYADSVEGRFTISRDNAKNTVYLQMNSLKPEDTAVYYCARYWRTSGVRMDYWGQGTQVTVSS | high polyreactivity
10 | QVQLVESGGGLVQAGGSLRLSCAASGIIFNDYAMGWYRQAPGKERELVAAISWSGGRTYYADSVKGRFTISRDNAKNTVYLQMNSLKPEDTAVYYCNARARQYSAFPVVERNYWGQGTQVTVSS | high polyreactivity
11 | QVQLVESGGGLVQAGGSLRLSCAASGIIFNRYAMGWYRQAPGKERELVAAISASGDSTYYADSVKGRFTISRDNAKYTVYLQMNSLKPEDTAVDYCAADYGYRYDYWGHGTQVTVSS | low polyreactivity
12 | QVQLVESGGGLVQAGGSLRLSCAASGIIFNTYAMGWYRQAPGKERELVAAIDSRDASTYADSVKGRYTISRDNAKNTVYLQMNSLIPEDTAVYYCAATHNVDLISEVYYWGQGTQVTVSS | low polyreactivity
13 | QVQLVESGGGLVQAGGSLRLSCAASGIIFPDYVMGWYRQAPGKERELVATITNDSSTTYADSVKGRFTISRDNAKNTVYLQMNSLKPEDTAVYYCAAPVDYQGDYWGQGTQVTVSS | low polyreactivity
14 | QVQLVESGGGLVQAGGSLRLSCAASGIIFPEYDMGWYRQAPGKERELVAAITKSDGRTYYADSVKGRFTISRDNAKNTVYLQMNSLKPEDTAVYYCNADPRVVAYLGFDSWGQGTQVTVSS | low polyreactivity
15 | QVQLVESGGGLVQAGGSLRLSCAASGIIFPFYVMGWYRQAPGKERELVAAITWSGDGTYYADSVKGRFTISRDNAKNTVYLQMNSLKPEDTAVYYCAAQWYYGGVKYYYWGQGTQVTVSS | low polyreactivity
16 | QVQLVESGGGLVQAGGSLRLSCAASGIIFPLYAMGWYRQAPGKERELVADITRGGSTYYADSVKGRFTISRDNAKNTVYLQMNSLKPEDTAVYYGNKQKRWTYSHYFPTTYDYWGQGTQVTVSS | high polyreactivity
17 | QVQLVESGGGLVQAGGSLRLSCAASGIIFPNYAMGWYRQAPGKERELFAAITWRGGGTYYADSVKGRFTISRDNAKNTVYLQMNSLKPEDTAVYYCAAQKAYPRRYYGYKWEYYYWGQGSQVTVSS | high polyreactivity
18 | QVQLVESGGGLVQAGGSLRLSCAASGIIFPNYAMGWYRQAPGKERELVAAITTSGTSTYYADSVKGRFTISRDNAKNTVYLQMNSLKPEDTAVYYCAARPTGHWGGRYYYWGQGTQVTVSS | high polyreactivity
19 | QVQLVESGGGLVQAGGSLRLSCAASGIIFPRYAMGWYRQAPGKERELVAAITIGGRTNYADSVKGRFTISRDNAKNTVYLQMNSLKPEDTAVYYCAAQTYVPYYEYDYWGQGTQVTVSS | low polyreactivity
20 | QVQLVESGGGLVQAGGSLRLSCAASGIIFPYNAMGWYTQAPGKERELVAAITGGGSTYYADSVKGRFTISRDNAKNTVYLQMNSLKPEDTAVYYCAADRSGPGYDYWGQGTQVTVSS | low polyreactivity
21 | QVQLVESGGGLVQAGGSLRLSCAASGIIFPYNVMGWYRQAPGKERELVAAITRGAASTYYADSVKGRFTISRDNAKNTVYLQMNSLKPEDTAVYYCATDPVSTRGSDYWGQGTQVTVSS | high polyreactivity
22 | QVQLVESGGGLVQAGGSLRLSCAASGIIFQGYVMGWYRQAPGKERELVAVISRTGGSTYYADSVKGRFTISRDNAKNTVYLQMNSLKPEDTAVYYSSAGTPRLRYLQGHRMNYWGKGTQVTVSS | high polyreactivity

Row | Sequence | polyreactivity (PSR sort gate)
23 | QVQLVESGGGLVQAGGSLRLSCAASGIIFQRNDMGWYRQAPGKERELVANIRDGGITYADSVKGRFTISRDNAKNTVYLQMNSLKPEDTAVYYCARDDTSPGFGDQSSNAAYYYWGQGTQVTVSS | low polyreactivity
24 | QVQLVESGGGLVQAGGSLRLSCAASGIIFRAYAMGWYRQAPGKERELVAAITSRGGSTYYADSVKGRFTISRDNAKNTVYLQMNSLKPEDTAVYYCAADFTIPYWDAKFDYWGQGTQVTVSS | low polyreactivity
25 | QVQLVESGGGLVQAGGSLRLSCAASGIIFRFYAMGWSRQAPGKERELVATISKRGGTTYYADSVKGRFTISRDYAMNTVDLQMNSLKPEDSAVYYCAVRLYLEMDYWGQGTQVTVSS | high polyreactivity
26 | QVQLVESGGGLVQAGGSLRLSCAASGIIFRFYAMGWYRQAPGKERELVAVITSRSDSTYYADSVKGRFTISRDNAKNTVYLQMNSLKPEDTAVYYCNARYPWYYRYSTYDYWGQGTQVTVSS | high polyreactivity
27 | QVQLVESGGGLVQAGGSLRLSCAASGIIFRFYARGWYRQAPGKERELVAAISSSGTRTYYADSVKGRFTISRDNAKNTVYLQMNSLKPEETAVYYCNAAYHYYDYDYWGQGTQVTVSS | high polyreactivity
28 | QVQLVESGGGLVQAGGSLRLSCAASGIIFRGYAMGWYRQAPGKERELVAGITSGGRTYYADSVKGRFTISRDNAKNTVYLQMNSLKPEDTAVYYCNADAYGDDWKIYDYWGQGTQVTVSS | low polyreactivity
29 | QVQLVESGGGLVQAGGSLRLSCAASGIIFRGYDMGWYRQAPGKERELVAVITDDGSTYYADSVKGRFTISRDNAKNTVYLQMNSLKPEDTAVYYCNADYLLGHWIWYDYWGQGTQVTVSS | low polyreactivity
30 | QVQLVESGGGLVQAGGSLRLSCAASGIIFRGYVMGWYRQAPGKERELVAAISTSGGRTSYADSVKGRFTISRDYAKNTVYLQMNSLKPEDTAVYYCAARPLYSYSQWGYGYWGQVTQVTVSS | high polyreactivity
31 | QVQLVESGGGLVQAGGSLRLSCAASGIIFRKYAMGWYRQAPGKERELVAAISFSGGTTYYADSVKGRFTISRDNAKNTVYLQMNSLKPEDTAVYYCAADPVAYVIDDYYWGQGTQVTVSS | high polyreactivity
32 | QVQLVESGGGLVQAGGSLRLSCAASGIIFRNYAMGWYRQAPGKERELVAAISRNGGSTYYADSVKGRFTISRDNAKNTVYLQMNSLKPEDTAVYYCAARASYPNWTYYYWGKGTQVTVSS | high polyreactivity
33 | QVQLVESGGGLVQAGGSLRLSCAASGIIFRPYAMGWYRQAPGTEMELVAAITGSGVSTYYADSVKGRFTISRDNAKNTVYLQMNSLKPEDTAVYYCAKRYNRGYHRYDYWGQGTQVTVSS | low polyreactivity
34 | QVQLVESGGGLVQAGGSLRLSCAASGIIFRRNAMGWYRQAPGKERELVATISRSGGSTYYADSVKGRFTISRYNAKNTVYLQMNSLKPEDTAVYYCNTLYPRPYAINPRDYWGQGTQVTVSS | high polyreactivity
35 | QVQLVESGGGLVQAGGSLRLSCAASGIIFRRYAMGWYRQAPGKERELVAAIRTSGGNTYYADSVKRRFTISRDNAKNTVYLQMNSLKPEDTAVYYCAARKYHYRYGYWGQGTQVTVSS | high polyreactivity
36 | QVQLVESGGGLVQAGGSLRLSCAASGIIFRRYAMGWYRQAPGKERELVAAISSGGRTYYADSVKGRFTISRDNAKNTVYLQMNSLKPEDTAVYYCNARAFARYWWYEYWGQGTQVTVSS | high polyreactivity
37 | QVQLVESGGGLVQAGGSLRLSCAASGIIFRRYAMGWYRQEPGKARELVAAITSGGDTNYADSVKGRFTLSRDNAKNTVYLQMNSLKPEDTAVYYCNAGLRGVRRYGFDYWGQGTQVTVSS | high polyreactivity
38 | QVQLVESGGGLVQAGGSLRLSCAASGIIFRSNAMGWYRQAAGNERELVAAISQRGGSTYYADSVKGRFTISRDNAKNTVYLQMNSLKPEDTAVYYCNALQRRYGGGGNDYWGQGTQVTVSS | high polyreactivity
39 | QVQLVESGGGLVQAGGSLRLSCAASGIIFRSNAMGWYRQAPGKERELVAAISRTGRTYYADSVKGRFTISRDNAKNTVNLQMNSLKPEDTAVYYCAVGIVQRDSRYYYWGQGTQVTVSS | high polyreactivity
40 | QVQLVESGGGLVQAGGSLRLSCAASGIIFRSNAMGWYRQAPGKERELVAAISWSGSSTYYADSVKGRFTISRDNAKKTVYLQMNSLKPEDTAVYYCAAYDFYGIYWGQGTQVTVSS | low polyreactivity
41 | QVQLVESGGGLVQAGGSLRLSCAASGIIFRTYAMGWYRQAPGKEREFVAAISWSGGRTYYADSVKGRFTISRDNAKNTVYLQMNSLKPEDTAVYYCAALRSSQSKGDYWGQGTQVTVSS | high polyreactivity
42 | QVQLVESGGGLVQAGGSLRLSCAASGIIFRVNAMGWYRQAPGKERELVAAISSGGRTYYADSVKGRFTISGDNAKNTVSLQMNSLKPEDTAVYYCNAGRLRYIFKSYDYWGQGTQVSVSS | high polyreactivity
43 | QVQLVESGGGLVQAGGSLRLSCAASGIIFRYNAMGWYRQAPGKERELVADITFSVGSTNYADSVKGRFTISRDNAKNTVYLQMNSLKPEDTAVYYCAAKFHSTYGNDDWGQGTQVTVSS | low polyreactivity
